Measured values reported in patent publication US20240270846A1 (published 2024).
Numbering of substitutions follows the chain as printed. Numbers in names are those of the source.

Molecular target: T1, CD3 epsilon homodimer protein (UniProt P07766 23-126)
T1 construct: Construct of the homodimer protein is not described; also called CD3 (CD3 epsilon)
Assay: SPR (Biacore T200), CD3 epsilon homodimer on CM4 chip, one-arm antibody as analyte; ratio to unaltered CE115HA000;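 note: surface plasmon resonance run at 25 °C with HBS-EP+ as running buffer, CD3 epsilon homodimer attached by amine coupling, antibody passed over as analyte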

T1 sequence (P07766 23-126): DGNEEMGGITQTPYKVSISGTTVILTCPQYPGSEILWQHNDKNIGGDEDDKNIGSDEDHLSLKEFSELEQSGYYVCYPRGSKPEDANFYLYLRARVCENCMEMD

B1: CE115HA000 S62E one-arm antibody (antibody, human IgG1, kappa, L234A L235A, N297A, name in Kabat numbering)
heavy: QVQLVESGGGVVQPGRSLRLSCAASGFTFSNAWMHWVRQAPGKGLEWVAQIKAKSNNYATYYAEEVKGRFTISRDDSKNSLYLQMNSLKTEDTAVYYCRYVHYGAYYGVDAWGQGTTVTVSSASTKGPSVFPLAPSSKSTSGGTAALGCLVKDYFPEPVTVSWNSGALTSGVHTFPAVLQSSGLYSLSSVVTVPSSSLGTQTYICNVNHKPSNTKVDKKVEPKSCDKTHTCPPCPAPEAAGGPSVFLFPPKPKDTLMISRTPEVTCVVVDVSHEDPEVKFNWYVDGVEVHNAKTKPREEQYASTYRVVSVLTVLHQDWLNGKEYKCKVSNKALPAPIEKTISKAKGQPREPQVYTLPPSRCELTKNQVSLSCAVKGFYPSDIAVEWESNGQPENNYKTTPPVLDSDGSFFLVSKLTVDKSRWQQGNVFSCSVMHEALHNHYTQKSLSLSPDYKDDDDK
chain: EPKSSDKTHTCPPCPAPELLGGPSVFLFPPKPKDTLMISRTPEVTCVVVDVSHEDPEVKFNWYVDGVEVHNAKTKPREEQYNSTYRVVSVLTVLHQDWLNGKEYKCKVSNKALPAPIEKTISKAKGQPREPQVCTLPPSRDELTKNQVSLWCLVKGFYPSDIAVEWESNGQPENNYKTTPPVLDSDGSFFLYSKLTVDKSRWQQGNVFSCSVMHEALHNRYTQKSLSLSP
light: DIVMTQSPLSLPVTPGEPASISCRSSQSLVHSNRNTYLHWYQQKPGQAPRLLIYKVSNRFSGVPDRFSGSGSGTDFTLKISRVEAEDVGVYYCGQGTQVPYTFGQGTKLEIKRTVAAPSVFIFPPSDEQLKSGTASVVCLLNNFYPREAKVQWKVDNALQSGNSQESVTEQDSKDSTYSLSSTLTLSKADYEKHKVYACEVTHQGLSSPVTKSFNRGEC
notes: one-arm antibody
  KD ratio (KD value of CE115HA000/KD value of the altered form): 0.82

B2: CE115HA000 Y100L one-arm antibody (antibody, human IgG1, kappa, L234A L235A, N297A, name in Kabat numbering)
heavy: B1 heavy with E65S, Y106L
chain: B1 chain
light: B1 light
notes: one-arm antibody
  KD ratio (KD value of CE115HA000/KD value of the altered form): 0.67

B3: CE115HA000 V100cP one-arm antibody (antibody, human IgG1, kappa, L234A L235A, N297A, name in Kabat numbering)
heavy: B1 heavy with E65S, V109P
chain: B1 chain
light: B1 light
notes: one-arm antibody
  KD ratio (KD value of CE115HA000/KD value of the altered form): 0.97

B4: CE115HA000 Y100K one-arm antibody (antibody, human IgG1, kappa, L234A L235A, N297A, name in Kabat numbering)
heavy: B1 heavy with E65S, Y106K
chain: B1 chain
light: B1 light
notes: one-arm antibody
  KD ratio (KD value of CE115HA000/KD value of the altered form): 0.93

B5: CE115HA000 Y97S one-arm antibody (antibody, human IgG1, kappa, L234A L235A, N297A, name in Kabat numbering)
heavy: B1 heavy with E65S, Y103S
chain: B1 chain
light: B1 light
notes: one-arm antibody
  KD ratio (KD value of CE115HA000/KD value of the altered form): 1180

B6: CE115HA000 Y97D one-arm antibody (antibody, human IgG1, kappa, L234A L235A, N297A, name in Kabat numbering)
heavy: B1 heavy with E65S, Y103D
chain: B1 chain
light: B1 light
notes: one-arm antibody
  KD ratio (KD value of CE115HA000/KD value of the altered form): 64.7

B7: CE115HA000 S62P one-arm antibody (antibody, human IgG1, kappa, L234A L235A, N297A, name in Kabat numbering)
heavy: B1 heavy with E65P
chain: B1 chain
light: B1 light
notes: one-arm antibody
  KD ratio (KD value of CE115HA000/KD value of the altered form): 0.77

B8: CE115HA000 Y100aA one-arm antibody (antibody, human IgG1, kappa, L234A L235A, N297A, name in Kabat numbering)
heavy: B1 heavy with E65S, Y107A
chain: B1 chain
light: B1 light
notes: one-arm antibody
  KD ratio (KD value of CE115HA000/KD value of the altered form): 0.66

B9: CE115HA000 Y100Q one-arm antibody (antibody, human IgG1, kappa, L234A L235A, N297A, name in Kabat numbering)
heavy: B1 heavy with E65S, Y106Q
chain: B1 chain
light: B1 light
notes: one-arm antibody
  KD ratio (KD value of CE115HA000/KD value of the altered form): 0.77

B10: CE115HA000 V95S one-arm antibody (antibody, human IgG1, kappa, L234A L235A, N297A, name in Kabat numbering)
heavy: B1 heavy with E65S, V101S
chain: B1 chain
light: B1 light
notes: one-arm antibody
  KD ratio (KD value of CE115HA000/KD value of the altered form): 4.61

B11: CE115HA000 V95E one-arm antibody (antibody, human IgG1, kappa, L234A L235A, N297A, name in Kabat numbering)
heavy: B1 heavy with E65S, V101E
chain: B1 chain
light: B1 light
notes: one-arm antibody
  KD ratio (KD value of CE115HA000/KD value of the altered form): 50.5

B12: CE115HA000 Y100D one-arm antibody (antibody, human IgG1, kappa, L234A L235A, N297A, name in Kabat numbering)
heavy: B1 heavy with E65S, Y106D
chain: B1 chain
light: B1 light
notes: one-arm antibody
  KD ratio (KD value of CE115HA000/KD value of the altered form): 0.63

B13: CE115HA000 Y100P one-arm antibody (antibody, human IgG1, kappa, L234A L235A, N297A, name in Kabat numbering)
heavy: B1 heavy with E65S, Y106P
chain: B1 chain
light: B1 light
notes: one-arm antibody
  KD ratio (KD value of CE115HA000/KD value of the altered form): 1.3

B14: CE115HA000 V95K one-arm antibody (antibody, human IgG1, kappa, L234A L235A, N297A, name in Kabat numbering)
heavy: B1 heavy with E65S, V101K
chain: B1 chain
light: B1 light
notes: one-arm antibody
  KD ratio (KD value of CE115HA000/KD value of the altered form): 1.15

B15: CE115HA000 Y97P one-arm antibody (antibody, human IgG1, kappa, L234A L235A, N297A, name in Kabat numbering)
heavy: B1 heavy with E65S, Y103P
chain: B1 chain
light: B1 light
notes: one-arm antibody
  KD ratio (KD value of CE115HA000/KD value of the altered form): 12400

B16: CE115HA000 V100cD one-arm antibody (antibody, human IgG1, kappa, L234A L235A, N297A, name in Kabat numbering)
heavy: B1 heavy with E65S, V109D
chain: B1 chain
light: B1 light
notes: one-arm antibody
  KD ratio (KD value of CE115HA000/KD value of the altered form): 1.64

B17: CE115HA000 Y100V one-arm antibody (antibody, human IgG1, kappa, L234A L235A, N297A, name in Kabat numbering)
heavy: B1 heavy with E65S, Y106V
chain: B1 chain
light: B1 light
notes: one-arm antibody
  KD ratio (KD value of CE115HA000/KD value of the altered form): 0.92

B18: CE115HA000 S77T one-arm antibody (antibody, human IgG1, kappa, L234A L235A, N297A, name in Kabat numbering)
heavy: B1 heavy with E65S, S80T
chain: B1 chain
light: B1 light
notes: one-arm antibody
  KD ratio (KD value of CE115HA000/KD value of the altered form): 0.83

B19: CE115HA000 Y100W one-arm antibody (antibody, human IgG1, kappa, L234A L235A, N297A, name in Kabat numbering)
heavy: B1 heavy with E65S, Y106W
chain: B1 chain
light: B1 light
notes: one-arm antibody
  KD ratio (KD value of CE115HA000/KD value of the altered form): 0.96

B20: CE115HA000 S74P one-arm antibody (antibody, human IgG1, kappa, L234A L235A, N297A, name in Kabat numbering)
heavy: B1 heavy with E65S, S77P
chain: B1 chain
light: B1 light
notes: one-arm antibody
  KD ratio (KD value of CE115HA000/KD value of the altered form): 0.7

B21: CE115HA000 Y100aD one-arm antibody (antibody, human IgG1, kappa, L234A L235A, N297A, name in Kabat numbering)
heavy: B1 heavy with E65S, Y107D
chain: B1 chain
light: B1 light
notes: one-arm antibody
  KD ratio (KD value of CE115HA000/KD value of the altered form): 1.2

B22: CE115HA000 S62K one-arm antibody (antibody, human IgG1, kappa, L234A L235A, N297A, name in Kabat numbering)
heavy: B1 heavy with E65K
chain: B1 chain
light: B1 light
notes: one-arm antibody
  KD ratio (KD value of CE115HA000/KD value of the altered form): 0.99

B23: CE115HA000 V95G one-arm antibody (antibody, human IgG1, kappa, L234A L235A, N297A, name in Kabat numbering)
heavy: B1 heavy with E65S, V101G
chain: B1 chain
light: B1 light
notes: one-arm antibody
  KD ratio (KD value of CE115HA000/KD value of the altered form): 78300

B24: CE115HA000 S74A one-arm antibody (antibody, human IgG1, kappa, L234A L235A, N297A, name in Kabat numbering)
heavy: B1 heavy with E65S, S77A
chain: B1 chain
light: B1 light
notes: one-arm antibody
  KD ratio (KD value of CE115HA000/KD value of the altered form): 0.77

B25: CE115HA000 Y97R one-arm antibody (antibody, human IgG1, kappa, L234A L235A, N297A, name in Kabat numbering)
heavy: B1 heavy with E65S, Y103R
chain: B1 chain
light: B1 light
notes: one-arm antibody
  KD ratio (KD value of CE115HA000/KD value of the altered form): 23200

B26: CE115HA000 Y100S one-arm antibody (antibody, human IgG1, kappa, L234A L235A, N297A, name in Kabat numbering)
heavy: B1 heavy with E65S, Y106S
chain: B1 chain
light: B1 light
notes: one-arm antibody
  KD ratio (KD value of CE115HA000/KD value of the altered form): 0.7

B27: CE115HA000 V95A one-arm antibody (antibody, human IgG1, kappa, L234A L235A, N297A, name in Kabat numbering)
heavy: B1 heavy with E65S, V101A
chain: B1 chain
light: B1 light
notes: one-arm antibody
  KD ratio (KD value of CE115HA000/KD value of the altered form): 3.15

B28: CE115HA000 Y100A one-arm antibody (antibody, human IgG1, kappa, L234A L235A, N297A, name in Kabat numbering)
heavy: B1 heavy with E65S, Y106A
chain: B1 chain
light: B1 light
notes: one-arm antibody
  KD ratio (KD value of CE115HA000/KD value of the altered form): 0.92

B29: CE115HA000 V100cE one-arm antibody (antibody, human IgG1, kappa, L234A L235A, N297A, name in Kabat numbering)
heavy: B1 heavy with E65S, V109E
chain: B1 chain
light: B1 light
notes: one-arm antibody
  KD ratio (KD value of CE115HA000/KD value of the altered form): 1.31

B30: CE115HA000 V95D one-arm antibody (antibody, human IgG1, kappa, L234A L235A, N297A, name in Kabat numbering)
heavy: B1 heavy with E65S, V101D
chain: B1 chain
light: B1 light
notes: one-arm antibody
  KD ratio (KD value of CE115HA000/KD value of the altered form): 108

B31: CE115HA000 Y100G one-arm antibody (antibody, human IgG1, kappa, L234A L235A, N297A, name in Kabat numbering)
heavy: B1 heavy with E65S, Y106G
chain: B1 chain
light: B1 light
notes: one-arm antibody
  KD ratio (KD value of CE115HA000/KD value of the altered form): 0.97
